Results: patent publication US20200141935A1, “SYSTEM, METHOD, APPARATUS AND DIAGNOSTIC TEST FOR PREGNANCY” (BARCELONA INSTITUTE FOR GLOBAL HEALTH, priority 2017, published 2020)

Tests used:
[1] = test system: IgG; experiment: Multiplex bead-based immunoassay (Luminex): IgG levels (nMFI) against antigens, compared between groups; type: binding, pregnant women; conditions: for Immunoreactivity: recognition by IgGs at levels above BSA recognition: 641 pregnant Mozambican women 2003-2012, mean nMFI above mean BSA nMFI plus 3 SD; for Infection during pregnacy Infection vs no-infection ratio (95% CI): Mozambican women followed 2011-2012; for Exposure dependence Decrease 2010 vs 2003-2005 Ratio (95% CI) / Exposure dependence Increase 2011-2012 vs 2010 Ratio (95% CI): nMFI ratio at delivery, Mozambique, adjusted by parity, age, treatment and HIV; for PW Mz vs PW Bcn Ratio (95% CI) / Parasite density Low vs High ratio (95% CI): nMFI ratio; for PW Mz vs PW Bcn Ratio (95% CI): pregnant Mozambican women vs pregnant Spanish women (N=49); for Parasite density Low vs High ratio (95% CI): below or above 200 genomes per microliter
Description: (§1) Two multiplex suspension array panels were constructed to quantify IgG responses against P. falciparum recombinant proteins and synthetic peptides, using the xMAP™ technology and the Luminex® 100/200™ System (Luminex® Corp., Austin, Tex.). MagPlex® microspheres (magnetic carboxylated polystyrene microparticles, 5.6 μm) with different spectral signatures were selected for each protein (DBL3X, DBL5ϵ, DBL6ϵ, AMA1 and MSP119), peptides (25 VAR2CSA peptides and pCSP), tetanus toxin and bovine serum albumin (BSA). Antigens were covalently coupled to beads following a modification of the Luminex® Corporation protocol. Protein and peptide multiplex arrays were prepared by pooling together equal volumes of coated beads. Plasma samples or the product of DBS elution were analyzed in duplicate at dilution 1:400 for the protein array and 1:100 for the peptide array. A hyperimmune plasma pool composed by 23 plasmas from malaria infected Mozambican pregnant women (HIP-VAR2CSA) was included in each assay plate, in addition to blanks (wells without sample) to assess background levels. A minimum of 50 microspheres were read per spectral signature and results were exported as crude median fluorescent intensity ([…]). Duplicates were averaged and background MFIs were subtracted. A total of 224 plates were analyzed and the intra-assay variation (mean CV of replicates from 20 plasma samples per plate) ranged from 1.4% to 7.3% for the protein array and from 2.5% to 12.4% for the peptide array. The inter-assay variation (variability of positive pool [HIP-VAR2CSA] between 224 plates) was 5% for the protein array and 26% for the peptide array. Results were normalized (nMFI) to account for plate-to-plate variation by […] the background subtracted MFI of each sample with the value of the positive pool in the same plate and dividing by the median of positive pools in all plates.
(§2) Antibodies were eluted from DBS from Gabon, […] and Kenya, as previously described. Briefly, to achieve a concentration of eluted blood proteins equivalent to a 1:50 plasma dilution antibodies were eluted from four spots of approximately 3 mm in diameter with 200 μl Luminex® assay buffer (1% BSA, 0.05% sodium azide in filtrated PBS [Phosphate-buffered saline]). […]. Controls blood drops were artificially prepared using fresh erythrocytes (blood type 0, assuming a hematocrit approximately of 50%) and freeze plasma from 49 Spanish pregnant women. Filter papers were stored avoiding humidity at −20° C. in Barcelona.
(§3) Presence or absence of antibodies was defined by finite mixture models (FMM) for pregnancy-specific antigens (VAR2CSA peptides and recombinant domains) and by the mean plus 3 standard deviation (SD) of IgG response from pregnant women from Barcelona for general malaria antigens (AMA1, MSP119, and pCSP).
(§4) Data was fitted to a normal distribution by logarithmic transformation of nMFIs. Participant's baseline characteristics and parasitological outcomes were compared between study times and areas by univariate analysis (Fisher's tests for binary outcomes or t-Student test for continuous outcomes). Responses were considered not restricted to malaria when seroprevalences were 5% or high among Spanish pregnant women.
Linear regression models were used to compare antibody levels from Mozambican and Spanish pregnant women. The capacity of antibody levels to mimic malaria trends in Mozambique was analyzed by linear regression models (2010 was compared with 2003-2005 corresponding to a trend of malaria decrease and 2011-2012 with 2010 to a trend of increase) adjusted by treatment, parity, age and HIV.
The impact of P. falciparum infection during pregnancy on antibodies at delivery was assessed in linear regression models adjusted by age, parity, HIV and treatment. Changes in antibody levels due to parasite density (below or above 200) were assessed by linear regression models adjusted by age, parity, HIV and treatment. […]

[2] = test system: IgG; experiment: Multiplex bead-based immunoassay: seroprevalence (finite mixture models or negative control cutoff); type: binding, pregnant women; conditions: for SeroPrev Delivery %: 239 pregnant Mozambican women followed 2011-2012; for Seroprevalence MQ (%): IPTp with mefloquine; for Seroprevalence K (%): Kenya; for Seroprevalence K (%) / Seroprevalence M (%) / Seroprevalence B (%) / Seroprevalence G (%): at delivery; for MQ (OR): Placebo as reference; for M (OR) / Seroprevalence M (%): Mozambique; for Seroprevalence PL (%): Placebo group; for Seroprevalence A (%) / A (OR): anemia; for A (OR): Non-A as reference; for Seroprevalence Non-A (%): non anemia; for Seroprevalence B (%): Benin; for G (OR) / Seroprevalence G (%): Gabon; for Seroprevalence SP (%): IPTp with sulfadoxine-pyrimethamine; for SP (OR): MQ as reference; for SeroPrev PW Bcn (%): seroprevalence among pregnant Spanish women never exposed to malaria; for Decrease (OR): seroprevalence odds ratio 2010 vs 2003/5, Mozambique; for Decrease (OR) / Increase (OR): adjusted; for Increase (OR): seroprevalence odds ratio 2011/12 vs 2010, Mozambique
Description: as §1, §2, §3, §4
Seroprevalences between countries (Benin, Gabon and Mozambique for HIV-uninfected and Kenya and Mozambique for HIV-infected), between IPTp intervention group (MQ vs SP for HIV-uninfected and MQ vs Placebo for HIV infected) and anemia status were compared by logistic regression models adjusted by parity, age and treatment.
The modification of the associations by HIV infection or parity was assessed by including interaction terms into the regression models.

[3] = test system: IgG; experiment: Antibody dynamics during pregnancy (time to double, half-life, sero-reversion) from bead-based immunoassay; type: binding, pregnant Mozambican women; conditions: for Antibody dynamics Time to double weeks (95% CI): women with P. falciparum infection on follow-up, log-linear mixed-effects model
Description: as §1
The adjusted effect of infection on antibody levels was analyzed using log-linear mixed-effects regression models incorporating Gaussian random intercepts. […] Time to double the antibody levels (T2x) and half-lives were calculated in weeks from the estimated rates and the boundaries at 95% confidence interval obtained from mixed-effects models for subjects suffering a P. falciparum infection at follow-up independent of antibody status at recruitment (Ab[−or+]/Pf+) and subjects seropositive at recruitment and no infection detected on follow-up (Ab+/Pf−), respectively. In situations that the increase rate is a negative value (rate below 1) or the decay rate is a positive value (rate above 1), the calculated T2x or half-life was reported as infinity. Similarly, the time to sero-reversion was calculated for these subjects using the ratio of the seropositivity cutoff by the average antibody titers at recruitment as decay, i.e. how many times the average titers need to be reduced to be equal the cutoff.

[4] = HIV infected, Kenya as reference
[5] = HIV uninfected, Benin as reference
[6] = Mozambican pregnant women at delivery

B1: MSP119: recombinant merozoite surface protein-1, 19-kDa, from 3D7 strain (protein)
chain: NISQHQCVKKQCPENSGCFRHLDEREECKCLLNYKQEGDKCVENPNPTCNENNGGCDADATCTEEDSGSSRKKITCECTKPDSYPLFDGIFCS
- Immunoreactivity: recognition by IgGs at levels above BSA recognition [1]: above BSA recognition
- Infection during pregnacy Infection vs no-infection ratio (95% CI) ([1]; nMFI at delivery, adjusted): 3.69 (1.83; 7.46)
- Parity MG vs PG ratio (95% CI) ([1]; nMFI at delivery, multigravid vs primigravid Mozambican women, adjusted): 1.6 (0.6; 4.29)
- Exposure dependence Decrease 2010 vs 2003-2005 Ratio (95% CI) [1]: 0.43 (0.28; 0.65)
- Exposure dependence Increase 2011-2012 vs 2010 Ratio (95% CI) [1]: 0.88 (0.60; 1.30)
- PW Mz vs PW Bcn Ratio (95% CI) [1]: 85.07 (46.72; 154.9)
- Parasite density Low vs High ratio (95% CI) ([1]; adjusted): 2.55 (0.98; 6.63)
- SeroPrev Delivery % [2]: 89%
- Seroprevalence MQ (%) ([2]; HIV infected): 85%
- Seroprevalence K (%) ([2]; HIV infected): 88%
- MQ (OR) ([2]; HIV infected): 0.84 (0.54; 1.32)
- M (OR) [2, 4]: 0.73 (0.46; 1.16)
- Seroprevalence M (%) ([2]; HIV infected): 85%
- Seroprevalence PL (%) ([2]; HIV infected): 87%
- Seroprevalence A (%) ([2]; HIV infected): 85%
- A (OR) ([2]; HIV infected): 0.90 (0.56; 1.45)
- Seroprevalence Non-A (%) ([2]; HIV infected): 87%
- Seroprevalence B (%) ([2]; HIV uninfected): 99%
- G (OR) [2, 5]: 0.08 (0.04; 0.18)
- Seroprevalence G (%) ([2]; HIV uninfected): 84%
- Seroprevalence MQ (%) ([2]; HIV uninfected): 94%
- Seroprevalence SP (%) ([2]; HIV uninfected): 94%
- M (OR) [2, 5]: 0.13 (0.07; 0.26)
- Seroprevalence M (%) ([2]; HIV uninfected): 89%
- SP (OR) ([2]; HIV uninfected): 1.02 (0.63; 1.66)
- Seroprevalence A (%) ([2]; HIV uninfected): 94%
- A (OR) ([2]; HIV uninfected): 0.95 (0.60; 1.51)
- Seroprevalence Non-A (%) ([2]; HIV uninfected): 95%
- Seroprevalence in Tanzania ([2]; HIV-uninfected women, area of Tanzania where no malaria infection was observed): 48%
- Seroprevalence in 2003-2005 ([2]; Mozambican pregnant women at delivery, 2003-2005 pooled): 94%
- Seroprevalence 2003/4 (%) [2, 6]: 90%
- Seroprevalence 2005 (%) [2, 6]: 99%
- Seroprevalence 2010 (%) [2, 6]: 94%
- Seroprevalence 2011 (%) [2, 6]: 84%
- Seroprevalence in 2011-2012 ([2]; Mozambican pregnant women at delivery, 2011-2012 pooled): 87%
- Seroprevalence 2012 (%) [2, 6]: 90%
- SeroPrev PW Bcn (%) [2]: 4%
- Decrease (OR) [2]: 0.81 (0.31; 2.14)
- Increase (OR) [2]: 0.37 (0.19; 0.74)
- Antibody dynamics Sero-revertion weeks (95% CI) ([3]; time to sero-negativisation, seropositive at recruitment, no infection on follow-up): 385.42 (207.36; 2728.50) weeks
- Antibody dynamics Time to double weeks (95% CI) [3]: 31.69 (15.65; ∞) weeks

B2: pcsp: circumsporozoite peptide of 64 aminoacids (NVDP[NANP]15) (peptide)
peptide: NVDPNANPNANPNANPNANPNANPNANPNANPNANPNANPNANPNANPNANPNANPNANPNANP
- Immunoreactivity: recognition by IgGs at levels above BSA recognition [1]: above BSA recognition
- Infection during pregnacy Infection vs no-infection ratio (95% CI) ([1]; nMFI at delivery, adjusted): 3.1 (1.75; 5.49)
- Exposure dependence Decrease 2010 vs 2003-2005 Ratio (95% CI) [1]: 0.49 (0.34; 0.71)
- Exposure dependence Increase 2011-2012 vs 2010 Ratio (95% CI) [1]: 1.1 (0.80; 1.52)
- PW Mz vs PW Bcn Ratio (95% CI) [1]: 8.2 (4.84; 13.87)
- Parasite density Low vs High ratio (95% CI) ([1]; adjusted): 1.81 (0.75; 4.37)
- SeroPrev Delivery % [2]: 64%
- Seroprevalence MQ (%) ([2]; HIV infected): 12%
- Seroprevalence K (%) ([2]; HIV infected): 21%
- MQ (OR) ([2]; HIV infected): 0.69 (0.44; 1.07)
- M (OR) [2, 4]: 0.41 (0.26; 0.64)
- Seroprevalence M (%) ([2]; HIV infected): 10%
- Seroprevalence PL (%) ([2]; HIV infected): 17%
- Seroprevalence A (%) ([2]; HIV infected): 12%
- A (OR) ([2]; HIV infected): 0.86 (0.52; 1.41)
- Seroprevalence Non-A (%) ([2]; HIV infected): 17%
- Seroprevalence B (%) ([2]; HIV uninfected): 44%
- G (OR) [2, 5]: 0.37 (0.24; 0.57)
- Seroprevalence G (%) ([2]; HIV uninfected): 23%
- Seroprevalence MQ (%) ([2]; HIV uninfected): 31%
- Seroprevalence SP (%) ([2]; HIV uninfected): 34%
- M (OR) [2, 5]: 0.19 (0.14; 0.26)
- Seroprevalence M (%) ([2]; HIV uninfected): 13%
- SP (OR) ([2]; HIV uninfected): 1.08 (0.84; 1.38)
- Seroprevalence A (%) ([2]; HIV uninfected): 34%
- A (OR) ([2]; HIV uninfected): 1.19 (0.94; 1.51)
- Seroprevalence Non-A (%) ([2]; HIV uninfected): 31%
- Seroprevalence 2003/4 (%) [2, 6]: 48%
- Seroprevalence 2005 (%) [2, 6]: 57%
- Seroprevalence 2010 (%) [2, 6]: 36%
- Seroprevalence 2011 (%) [2, 6]: 40%
- Seroprevalence 2012 (%) [2, 6]: 46%
- SeroPrev PW Bcn (%) [2]: 10%
- Decrease (OR) [2]: 0.43 (0.27; 0.69)
- Increase (OR) [2]: 1.19 (0.80; 1.78)
- Antibody dynamics Time to double weeks (95% CI) [3]: 51.33 (22.30; ∞) weeks
